# Results as given in PMC9482650, “Quantitative fragmentomics allow affinity mapping of interactomes” (Nature Communications, 2022).
# T1: NHERF3_4, Q5T2W1
# T1 sequence (Q5T2W1 373-468, limits assumed, looked up): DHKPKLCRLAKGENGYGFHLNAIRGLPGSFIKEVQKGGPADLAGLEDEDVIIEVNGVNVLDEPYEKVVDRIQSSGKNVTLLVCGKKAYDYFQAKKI
# T2: LIN7B, Q9HAP6
# T2 sequence (Q9HAP6 88-185, limits assumed, looked up): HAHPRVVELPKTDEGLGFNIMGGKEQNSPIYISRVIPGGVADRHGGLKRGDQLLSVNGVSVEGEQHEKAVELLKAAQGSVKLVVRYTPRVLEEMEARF
# T3: MPDZ_12, O75970
# T3 sequence (O75970 1857-1958, limits assumed, looked up): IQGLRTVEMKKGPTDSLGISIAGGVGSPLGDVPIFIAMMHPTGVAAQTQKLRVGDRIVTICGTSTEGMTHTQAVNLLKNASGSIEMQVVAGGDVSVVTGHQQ
# T4: MPP2, Q14168
# T4 sequence (Q14168 180-250, limits assumed, looked up): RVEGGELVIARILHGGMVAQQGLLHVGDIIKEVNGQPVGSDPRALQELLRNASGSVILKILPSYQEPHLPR
# T5: GRIP1_5, Q9Y3R0
# T5 sequence (Q9Y3R0 568-668, limits assumed, looked up): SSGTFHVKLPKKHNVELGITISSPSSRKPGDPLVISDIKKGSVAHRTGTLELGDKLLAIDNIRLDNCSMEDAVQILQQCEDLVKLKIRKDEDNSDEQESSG
# T6: RAPGEF6, Q8TEU7
# T6 sequence (Q8TEU7 525-625, limits assumed, looked up): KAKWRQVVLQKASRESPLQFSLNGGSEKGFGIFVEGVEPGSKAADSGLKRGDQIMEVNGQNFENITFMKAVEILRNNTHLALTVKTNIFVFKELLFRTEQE
# T7: LRRC7, Q96NW7
# T7 sequence (Q96NW7 1440-1537, limits assumed, looked up): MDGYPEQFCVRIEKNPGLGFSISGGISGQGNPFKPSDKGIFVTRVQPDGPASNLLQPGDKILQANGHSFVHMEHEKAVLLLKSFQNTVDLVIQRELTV
# T8: GRIP1_4, Q9Y3R0
# T8 sequence (Q9Y3R0 467-571, limits assumed, looked up): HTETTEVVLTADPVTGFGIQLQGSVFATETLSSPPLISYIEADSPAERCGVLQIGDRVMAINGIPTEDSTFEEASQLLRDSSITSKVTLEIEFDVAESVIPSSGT
# T9: PARD3B_1, Q8TEW8
# T9 sequence (Q8TEW8 196-299, limits assumed, looked up): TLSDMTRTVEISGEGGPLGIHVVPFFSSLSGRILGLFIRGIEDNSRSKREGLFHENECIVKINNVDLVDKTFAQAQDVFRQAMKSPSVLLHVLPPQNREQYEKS
# T10: DFNB31_2, Q9P202
# T10 sequence (Q9P202 274-371, limits assumed, looked up): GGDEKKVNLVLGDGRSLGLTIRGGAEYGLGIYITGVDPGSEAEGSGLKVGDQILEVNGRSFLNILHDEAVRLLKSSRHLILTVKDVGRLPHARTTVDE
# T11: PDZD2_2, O15018
# T11 sequence (O15018 329-429, limits assumed, looked up): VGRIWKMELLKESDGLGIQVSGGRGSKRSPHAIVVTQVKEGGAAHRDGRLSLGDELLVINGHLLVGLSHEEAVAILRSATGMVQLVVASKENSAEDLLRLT
# T12: DLG3_3, Q92796
# T12 sequence (Q92796 374-475, limits assumed, looked up): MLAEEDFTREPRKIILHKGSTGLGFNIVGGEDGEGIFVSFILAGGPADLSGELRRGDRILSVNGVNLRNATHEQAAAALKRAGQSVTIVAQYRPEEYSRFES
# T13: DFNB31_3, Q9P202
# T13 sequence (Q9P202 811-907, limits assumed, looked up): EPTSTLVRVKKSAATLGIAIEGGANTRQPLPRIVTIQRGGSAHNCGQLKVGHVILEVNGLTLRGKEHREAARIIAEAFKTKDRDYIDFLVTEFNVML
# How the values were obtained:
# Assay in all cases: holdup assay
# Design in all cases: key: below the threshold = too weak to quantify, mostly under pKd 3.1 to 4
# Settings in all cases: plain residues with an end cap or a label only (N-terminal biotin on a linker: ado-ado)
# NHERF2_2, Q15599 = biological target: NHERF2_2, Q15599
# Chain of NHERF2_2, Q15599 (Q15599 142-238): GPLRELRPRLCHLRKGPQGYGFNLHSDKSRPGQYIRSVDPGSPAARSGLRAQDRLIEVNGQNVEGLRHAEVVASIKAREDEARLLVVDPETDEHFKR
# DLG1_1, Q12959 = biological target: DLG1_1, Q12959
# NHERF3_4, Q5T2W1 = biological target: T1, NHERF3_4, Q5T2W1
# LIN7B, Q9HAP6 = biological target: T2, LIN7B, Q9HAP6
# MPDZ_12, O75970 = biological target: T3, MPDZ_12, O75970
# Inadl_2, Q8NI35 = biological target: Inadl_2, Q8NI35
# Chain of Inadl_2, Q8NI35 (Q8NI35 238-335): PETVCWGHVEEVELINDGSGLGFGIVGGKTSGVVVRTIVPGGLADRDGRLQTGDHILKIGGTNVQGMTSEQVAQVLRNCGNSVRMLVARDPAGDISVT
# SCRIB_3, Q14160 = biological target: SCRIB_3, Q14160
# Chain of SCRIB_3, Q14160 (Q14160 999-1103): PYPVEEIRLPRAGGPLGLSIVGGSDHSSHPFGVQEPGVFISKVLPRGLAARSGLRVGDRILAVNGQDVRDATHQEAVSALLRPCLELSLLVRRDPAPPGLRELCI
# MPP2, Q14168 = biological target: T4, MPP2, Q14168
# GRIP1_5, Q9Y3R0 = biological target: T5, GRIP1_5, Q9Y3R0
# GRIP2_5, Q9C0E4 = biological target: GRIP2_5, Q9C0E4
# Chain of GRIP2_5, Q9C0E4 (Q9C0E4 544-642): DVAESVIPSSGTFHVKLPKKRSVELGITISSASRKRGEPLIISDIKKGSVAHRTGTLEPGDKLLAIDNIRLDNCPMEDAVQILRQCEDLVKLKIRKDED
# SCRIB_1, Q14160 = biological target: SCRIB_1, Q14160
# Chain of SCRIB_1, Q14160 (Q14160 718-814): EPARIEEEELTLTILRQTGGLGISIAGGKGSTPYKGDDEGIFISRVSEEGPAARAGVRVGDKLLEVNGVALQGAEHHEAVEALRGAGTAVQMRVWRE
# RAPGEF6, Q8TEU7 = biological target: T6, RAPGEF6, Q8TEU7
# LRRC7, Q96NW7 = biological target: T7, LRRC7, Q96NW7
# GRIP1_4, Q9Y3R0 = biological target: T8, GRIP1_4, Q9Y3R0
# PDZRN4_1, Q6ZMN7 = biological target: PDZRN4_1, Q6ZMN7
# Chain of PDZRN4_1, Q6ZMN7 (Q6ZMN7 213-318): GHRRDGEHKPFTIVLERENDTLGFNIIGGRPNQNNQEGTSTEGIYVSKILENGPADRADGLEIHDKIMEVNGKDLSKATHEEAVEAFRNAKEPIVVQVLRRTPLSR
# SNX27, Q96L92 = biological target: SNX27, Q96L92
# PARD3B_1, Q8TEW8 = biological target: T9, PARD3B_1, Q8TEW8
# DFNB31_2, Q9P202 = biological target: T10, DFNB31_2, Q9P202
# TJP2_1, Q9UDY2 = biological target: TJP2_1, Q9UDY2
# Chain of TJP2_1, Q9UDY2 (Q9UDY2 24-128): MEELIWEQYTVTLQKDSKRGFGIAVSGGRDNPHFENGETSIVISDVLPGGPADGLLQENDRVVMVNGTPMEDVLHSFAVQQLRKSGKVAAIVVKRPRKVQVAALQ
# MAST2, Q6P0Q8 = biological target: MAST2, Q6P0Q8
# Chain of MAST2, Q6P0Q8 (Q6P0Q8 1099-1202): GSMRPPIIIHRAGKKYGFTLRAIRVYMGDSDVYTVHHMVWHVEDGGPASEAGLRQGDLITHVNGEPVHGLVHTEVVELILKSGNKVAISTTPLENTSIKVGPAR
# PDZD2_2, O15018 = biological target: T11, PDZD2_2, O15018
# DLG3_3, Q92796 = biological target: T12, DLG3_3, Q92796
# DFNB31_3, Q9P202 = biological target: T13, DFNB31_3, Q9P202
# LNX1_3, Q8TBB1 = biological target: LNX1_3, Q8TBB1
# Chain of LNX1_3, Q8TBB1 (Q8TBB1 500-596): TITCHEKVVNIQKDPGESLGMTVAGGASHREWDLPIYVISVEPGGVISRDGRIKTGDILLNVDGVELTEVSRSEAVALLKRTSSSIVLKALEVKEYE
Binder,"pKd (NHERF2_2, Q15599)","pKd (DLG1_1, Q12959)","pKd (NHERF3_4, Q5T2W1)","pKd (LIN7B, Q9HAP6)","pKd (MPDZ_12, O75970)","pKd (Inadl_2, Q8NI35)","pKd (SCRIB_3, Q14160)","pKd (MPP2, Q14168)","pKd (GRIP1_5, Q9Y3R0)","pKd (GRIP2_5, Q9C0E4)","pKd (SCRIB_1, Q14160)","pKd (RAPGEF6, Q8TEU7)","pKd (LRRC7, Q96NW7)","pKd (GRIP1_4, Q9Y3R0)","pKd (PDZRN4_1, Q6ZMN7)","pKd (SNX27, Q96L92)","pKd (PARD3B_1, Q8TEW8)","pKd (DFNB31_2, Q9P202)","pKd (TJP2_1, Q9UDY2)","pKd (MAST2, Q6P0Q8)",further results
"PDSNPEESSV [SEMA4C, Q9C0C4]",3.88,3.74,below the threshold,below the threshold,below the threshold,below the threshold,4.45,below the threshold,below the threshold,below the threshold,4.15,below the threshold,below the threshold,below the threshold,4.43,5.45,below the threshold,below the threshold,below the threshold,5.36,"pKd (PDZD2_2, O15018): 5.35; pKd (DLG3_3, Q92796): 3.62; pKd (DFNB31_3, Q9P202): below the threshold; pKd (LNX1_3, Q8TBB1): below the threshold"
"NPETRDETQL [KCNT1, Q5JUK3]",4.83,below the threshold,below the threshold,below the threshold,below the threshold,below the threshold,4.84,below the threshold,below the threshold,below the threshold,4.46,below the threshold,below the threshold,below the threshold,4.69,5.22,3.92,below the threshold,below the threshold,5.68,"pKd (PDZD2_2, O15018): 3.72; pKd (DLG3_3, Q92796): below the threshold; pKd (DFNB31_3, Q9P202): 4.01; pKd (LNX1_3, Q8TBB1): below the threshold"
"SSGSTSSSRI [ADGRG1, Q9Y653]",3.71,below the threshold,below the threshold,3.82,below the threshold,below the threshold,below the threshold,below the threshold,below the threshold,below the threshold,below the threshold,3.7,below the threshold,below the threshold,below the threshold,3.56,3.93,below the threshold,below the threshold,4.68,"pKd (PDZD2_2, O15018): 4.18; pKd (DLG3_3, Q92796): 3.64; pKd (DFNB31_3, Q9P202): 3.96; pKd (LNX1_3, Q8TBB1): below the threshold"
"PEEGKKQSQC [GAGE12J, A6NER3]",3.48,below the threshold,below the threshold,3.74,below the threshold,below the threshold,below the threshold,below the threshold,below the threshold,below the threshold,below the threshold,below the threshold,below the threshold,below the threshold,below the threshold,below the threshold,below the threshold,below the threshold,below the threshold,4.33,"pKd (PDZD2_2, O15018): 4.01; pKd (DLG3_3, Q92796): below the threshold; pKd (DFNB31_3, Q9P202): 4; pKd (LNX1_3, Q8TBB1): below the threshold"
"PKLMGVETVV [DUSP10, Q9Y6W6]",below the threshold,5.06,below the threshold,below the threshold,below the threshold,below the threshold,4.44,below the threshold,below the threshold,below the threshold,4.28,below the threshold,3.83,below the threshold,3.7,5.23,below the threshold,below the threshold,below the threshold,5.17,"pKd (PDZD2_2, O15018): 4.22; pKd (DLG3_3, Q92796): 3.91; pKd (DFNB31_3, Q9P202): below the threshold; pKd (LNX1_3, Q8TBB1): below the threshold"
"QLAEIAESGL [ITK, Q08881]",4.27,below the threshold,3.54,below the threshold,3.53,below the threshold,4.16,below the threshold,below the threshold,3.65,3.75,below the threshold,below the threshold,below the threshold,3.91,5.4,3.63,below the threshold,below the threshold,5.28,"pKd (PDZD2_2, O15018): 3.68; pKd (DLG3_3, Q92796): 3.55; pKd (DFNB31_3, Q9P202): below the threshold; pKd (LNX1_3, Q8TBB1): 3.66"
